The results in this text go back to publication PMC3504387 (Chemmedchem, 2012).

What is called EC50 is the midpoint of the concentration-response curve.

Where no end group is shown, it is not given here. The star is where a group is joined. Biotin = O=C1N[C@H]2[C@H](CS[C@H]2CCCCC(=O)*)N1; Ahx = NCCCCCC(=O)O

The target of assay [1] is T1, GST–PPARα (ligand binding domain, TR-FRET) (Homo sapiens, UniProt Q07869).
T1 construct: gene PPARA
T1 sequence (Q07869 196-468 limits assumed): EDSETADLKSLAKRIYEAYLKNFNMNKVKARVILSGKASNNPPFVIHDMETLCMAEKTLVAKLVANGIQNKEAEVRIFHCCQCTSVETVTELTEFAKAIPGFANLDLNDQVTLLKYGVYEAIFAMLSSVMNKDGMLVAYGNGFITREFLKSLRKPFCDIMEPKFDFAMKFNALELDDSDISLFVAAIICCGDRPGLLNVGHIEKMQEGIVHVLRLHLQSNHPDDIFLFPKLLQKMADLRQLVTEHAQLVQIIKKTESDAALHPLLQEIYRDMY
The experiment in a line: TR-FRET cofactor peptide recruitment.

Assay [2] concerns the target T2, PPARγ (Gal4-PPARγ LBD, transactivation) (Mus musculus, UniProt P37238).
T2 construct: gene Pparg
T2 sequence (P37238 204-505): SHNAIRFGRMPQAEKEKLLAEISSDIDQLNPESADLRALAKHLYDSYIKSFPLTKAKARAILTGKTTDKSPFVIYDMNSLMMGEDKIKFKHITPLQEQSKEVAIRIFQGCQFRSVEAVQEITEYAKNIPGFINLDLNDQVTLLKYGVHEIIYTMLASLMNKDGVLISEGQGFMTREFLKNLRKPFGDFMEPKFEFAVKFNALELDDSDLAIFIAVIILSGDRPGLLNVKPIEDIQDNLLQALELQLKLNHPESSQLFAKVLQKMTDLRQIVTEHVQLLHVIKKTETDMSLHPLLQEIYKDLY
The experiment in a line: Gal4-LBD luciferase transactivation, BHK21 cells. Format: cell-based. The settings on record: agonist; […] h, […] °C; unreliable.

The target of assay [3] is T3, PPARδ (Gal4-PPARδ LBD, transactivation) (Homo sapiens, UniProt Q03181).
T3 construct: gene PPARD
T3 sequence (Q03181 139-441): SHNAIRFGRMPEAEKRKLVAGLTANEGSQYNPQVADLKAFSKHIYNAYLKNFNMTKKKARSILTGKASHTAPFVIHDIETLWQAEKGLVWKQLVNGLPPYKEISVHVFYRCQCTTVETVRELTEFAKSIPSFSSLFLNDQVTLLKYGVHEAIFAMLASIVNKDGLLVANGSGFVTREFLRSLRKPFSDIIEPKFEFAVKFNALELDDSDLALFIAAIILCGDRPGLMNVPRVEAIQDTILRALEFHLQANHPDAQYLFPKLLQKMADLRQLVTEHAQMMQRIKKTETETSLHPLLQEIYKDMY
The experiment in a line: Gal4-LBD luciferase transactivation, BHK21 cells. The format is cell-based. Conditions: agonist; […] h, […] °C; unreliable.

The target of assay [4] is T4, GST–PPARα fusion protein (purified ligand binding domain of PPARα).
T4 sequence (Q07869 whole entry, species assumed, looked up): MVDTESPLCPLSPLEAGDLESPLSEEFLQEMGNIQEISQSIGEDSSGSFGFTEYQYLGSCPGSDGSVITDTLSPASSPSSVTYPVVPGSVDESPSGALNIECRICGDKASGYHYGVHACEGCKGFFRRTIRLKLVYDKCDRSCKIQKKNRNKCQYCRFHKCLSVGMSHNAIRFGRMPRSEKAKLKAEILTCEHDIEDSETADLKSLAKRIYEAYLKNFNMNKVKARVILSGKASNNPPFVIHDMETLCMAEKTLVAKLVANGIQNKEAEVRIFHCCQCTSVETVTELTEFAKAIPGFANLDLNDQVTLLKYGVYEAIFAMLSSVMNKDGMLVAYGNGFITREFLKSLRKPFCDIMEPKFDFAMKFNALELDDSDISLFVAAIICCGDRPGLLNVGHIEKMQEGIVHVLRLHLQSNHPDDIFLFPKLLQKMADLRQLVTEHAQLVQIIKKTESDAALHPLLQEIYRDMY
The experiment in a line: FRET or BRET; homogeneous TR-FRET as a1, 12-concentration dose–response of fenofibric acid; the EC50 is of the compound; delta ratio in % of the reference compound RO4899100 at 10 μM. For orientation: In BRET a luciferase serves as donor, and the signal depends on an acceptor being close.

Assay [5] addresses T5, GST–PPARγ fusion protein (purified ligand binding domain of PPARγ).
T5 chain: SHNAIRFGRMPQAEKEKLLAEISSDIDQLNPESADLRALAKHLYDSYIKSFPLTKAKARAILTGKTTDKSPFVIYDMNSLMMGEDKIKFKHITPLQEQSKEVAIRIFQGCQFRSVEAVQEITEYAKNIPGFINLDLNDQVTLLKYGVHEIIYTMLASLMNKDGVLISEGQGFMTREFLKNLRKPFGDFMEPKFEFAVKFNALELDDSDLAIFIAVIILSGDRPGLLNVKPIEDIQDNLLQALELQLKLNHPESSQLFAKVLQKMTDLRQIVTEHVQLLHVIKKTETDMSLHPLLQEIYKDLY
The experiment in a line: FRET or BRET; homogeneous TR-FRET as a1, 12-concentration dose–response of farglitazar; the EC50 is of the compound; delta ratio in % of the reference compound edaglitazone at 10 μM. Conditions: both partners purified.

Assay [6] concerns the target T4, GST–PPARα fusion protein (purified ligand binding domain of PPARα). The experiment in a line: FRET or BRET; homogeneous TR-FRET as a1, 12-concentration dose–response of RO4899100; the EC50 is of the compound; delta ratio in % of the reference compound at 10 μM (RO4899100 for PPARα, edaglitazone for PPARγ).
For assay [7] the target is unchanged. The experiment in a line: FRET or BRET; homogeneous TR-FRET as a1, 12-concentration dose–response of aleglitazar; the EC50 is of the compound; delta ratio in % of the reference compound at 10 μM (RO4899100 for PPARα, edaglitazone for PPARγ).
For assay [8] the target is unchanged. The experiment in a line: FRET or BRET; homogeneous TR-FRET as a1, 12-concentration dose–response of edaglitazone; the EC50 is of the compound; delta ratio in % of the reference compound at 10 μM (RO4899100 for PPARα, edaglitazone for PPARγ).
Assay [9] shares this target. The experiment in a line: FRET or BRET; homogeneous TR-FRET as a1, 12-concentration dose–response of muraglitazar; the EC50 is of the compound; delta ratio in % of the reference compound at 10 μM (RO4899100 for PPARα, edaglitazone for PPARγ).
The target is the same in assay [10]. The experiment in a line: FRET or BRET; homogeneous TR-FRET as a1, 12-concentration dose–response of pioglitazone; the EC50 is of the compound; delta ratio in % of the reference compound at 10 μM (RO4899100 for PPARα, edaglitazone for PPARγ).
For assay [11] the target is unchanged. The experiment in a line: FRET or BRET; homogeneous TR-FRET as a1, 12-concentration dose–response of tesaglitazar; the EC50 is of the compound; delta ratio in % of the reference compound at 10 μM (RO4899100 for PPARα, edaglitazone for PPARγ).
Assay [12] shares this target. The experiment in a line: FRET or BRET; homogeneous TR-FRET as a1, 12-concentration dose–response of rosiglitazone; the EC50 is of the compound; delta ratio in % of the reference compound at 10 μM (RO4899100 for PPARα, edaglitazone for PPARγ).
Assay [13] addresses T5, GST–PPARγ fusion protein (purified …). The experiment in a line: FRET or BRET; homogeneous TR-FRET as a1, 12-concentration dose–response of aleglitazar; the EC50 is of the compound; delta ratio in % of the reference compound at 10 μM (RO4899100 for PPARα, edaglitazone for PPARγ). The settings on record: both partners purified.
Assay [14] shares this target. The experiment in a line: FRET or BRET; homogeneous TR-FRET as a1, 12-concentration dose–response of edaglitazone; the EC50 is of the compound; delta ratio in % of the reference compound at 10 μM (RO4899100 for PPARα, edaglitazone for PPARγ). The settings on record: both partners purified.
For assay [15] the target is unchanged. The experiment in a line: FRET or BRET; homogeneous TR-FRET as a1, 12-concentration dose–response of muraglitazar; the EC50 is of the compound; delta ratio in % of the reference compound at 10 μM (RO4899100 for PPARα, edaglitazone for PPARγ). Conditions: both partners purified.
For assay [16] the target is unchanged. The experiment in a line: FRET or BRET; homogeneous TR-FRET as a1, 12-concentration dose–response of pioglitazone; the EC50 is of the compound; delta ratio in % of the reference compound at 10 μM (RO4899100 for PPARα, edaglitazone for PPARγ). The settings on record: both partners purified.
Assay [17] has the same target. The experiment in a line: FRET or BRET; homogeneous TR-FRET as a1, 12-concentration dose–response of tesaglitazar; the EC50 is of the compound; delta ratio in % of the reference compound at 10 μM (RO4899100 for PPARα, edaglitazone for PPARγ). Conditions: both partners purified.
Assay [18] has the same target. The experiment in a line: FRET or BRET; homogeneous TR-FRET as a1, 12-concentration dose–response of rosiglitazone; the EC50 is of the compound; delta ratio in % of the reference compound at 10 μM (RO4899100 for PPARα, edaglitazone for PPARγ). The settings on record: both partners purified.

As to `Cc1oc(-c2ccccc2)nc1CCOc1ccc(CC2SC(=O)NC2=O)c2sccc12` (centres unmarked) [Edaglitazone], in assay [1], a half-maximal effect (EC50) was put at 1050 nM.
In the case of `CC(C)(Oc1ccc(C(=O)c2ccc(Cl)cc2)cc1)C(=O)O` [Fenofibric acid], the “PPARδ / EC50” value in assay [2] amounted to 1470 nM. In addition, the concentration for a half-maximal effect (EC50) in assay [3] amounted to 1060 nM.
Take `Cc1nc(-c2ccc(C(F)(F)F)cc2)ccc1CN(C)C(=O)c1cccc(OC(C)(C)C(=O)O)c1` [RO4899100, 2-methyl-2-(3-{methyl-[2-methyl-6-(4-trifluoromethyl-phenyl)pyridin-3-ylmethyl]carbamoyl}phenoxy)propionic acid]: the “PPARδ / EC50 [nM]” value in assay [2] is 19 900 nM.

B1: NCoR ID2 cofactor peptide (nuclear receptor co-repressor, interaction domain 2) (peptide)
peptide: {Biotin-Ahx}-ADPASNLGLEDIIRKALMGSF
notes: nuclear receptor co-repressor (NCoR), ID2; also called NCoR2; NcoR2; source: synthetic peptide (Jerini or Biosynthan, Berlin)
As to B1, in assay [4], the EC50 of fenofibric acid for displacement amounted to 1900 nM and the delta ratio with fenofibric acid was -55%. The “EC50 of farglitazar for displacement” value in [5] came to 13.6 nM. Also, the EC50 of RO4899100 for displacement in assay [6] was determined as 18.5 nM. Moreover, in assay [7], the EC50 of aleglitazar for displacement worked out at 1.7 nM and the delta ratio with aleglitazar is -61%. Further, in assay [8], the EC50 of edaglitazone for displacement was found to be 1950 nM and the delta ratio with edaglitazone is -44%. For the same molecule, in assay [9], the EC50 of muraglitazar for displacement was determined as 139 nM and the delta ratio with muraglitazar was -50%. In addition, in assay [10], the EC50 of pioglitazone for displacement was found to be 3220 nM and the delta ratio with pioglitazone is -54%. Moreover, in [11], the EC50 of tesaglitazar for displacement amounted to 646 nM and the delta ratio with tesaglitazar is -54%. Further, in assay [12], the EC50 of rosiglitazone for displacement came out at 3000 nM and the delta ratio with rosiglitazone was -31%. Moreover, in assay [13], the “EC50 of aleglitazar for displacement” value was 15.3 nM. Moreover, the “EC50 of edaglitazone for displacement” value in assay [14] was 57.1 nM. Besides, the “EC50 of muraglitazar for displacement” value in assay [15] is 63.4 nM. Also, the “EC50 of pioglitazone for displacement” value in [16] was determined as 9420 nM. For the same molecule, in [17], the “EC50 of tesaglitazar for displacement” value stood at 537 nM. Besides, the “EC50 of rosiglitazone for displacement” value in assay [18] came to 497 nM.
